Kd data for 1 molecule are collected here from publication PMC12697983 (PLOS Pathogens, 2025).

The target of this test is SARS-CoV-2 wild-type spike receptor-binding domain (WT-RBD) (SARS-CoV-2, UniProt P0DTC2). The test can be described thus: SPR. To be noted: both partners purified.

B1: 1C4 (murine monoclonal antibody, IgG format) (antibody, V domains shown)
VH: QIQLVQSGPELKKPGETVKISCKASGYTFTDYGLNWVKQAPGKGLKWMGWINTYSGEPTYNDEFRGRFAFSLETSTITAYLKINNLKNEDTATYFCARGGNWDWYFDVWGAGTTVTVSS
VL: DIVLTQSPATLSVTPGDNVSLSCRASQIISNNLHWYQQKSHESPRLLIKYASQSISGIPSRFSGSGSGTDFTLSINSVETEDFGMYFCQQSNTWPLTCGSGTKLELN
Take B1: the Kd (as a rule, the concentration at which binding is half-saturated) is 0.488 nM.
